Test system: iron co-factored superoxide dismutase (SodA) of M. tuberculosis/BCG, wild type, as produced by BCG

Substance: mutant SodA ΔE54 (also contains H28R substitution)
- total SOD activity, 3D-BCG (ΔE54 SodA mutant put into DD-BCG) versus DD-BCG: FIG. 16; 16-fold reduction
- total SOD activity, ΔE54 SodA mutant in BCG or SIG-BCG: FIGS. 4, 14; 2- to 4-fold reduction

From patent US20110243992
